Test [1] deals with Manα2Manα2Manα-ThrB27 insulin glycoform 13 (human). Briefly: AUC.
Test [2] concerns the target unglycosylated human insulin 1 (human). Briefly: AUC.

Where only a bound is given, the exact number is not on record here.

The substance “Manα2Manα2Manα-ThrB27 insulin glycoform 13 (natural protein)” showed a percent monomer in test [1] of over 70%.

On to “unglycosylated human insulin 1 (natural protein)”, for which the stoichiometry N in test [2] amounted to 2.
